Patent US6127149

Target: cultured cells CH3/10T1/2 clone 8 (product of Dainippon Pharmaceutical Co., Ltd.)
Experiment: adhesion of cells to coated dish (10 ug/cm^2), 1 hour, DNA of attached cells by spectrophotometer

B1: invariant modified epimorphin fragment: fragment (2) of mouse epimorphin (Examples 10 to 12) (protein)
chain: NGNRTSVDLRIRRTQHSVLSRKFVDVMTEYNEAQILFRERSKGRIQRQLEITGRTTTDDELEEMLESGKPSIFISDIISDSQIT
B1 gave an absorbance (OD at 260 nm) of attached cells of 0.33 OD at 260 nm.
